B1: exemplary anti-CD28 antibody AB5 (antibody, V domains shown)
VH: EVQLQQSGPELEKPGASVKMSCKASGYSFTDYNMNWVKQSNGKSLEWIGIIDPYYGATTYNQRFKGKATLTVDKSSSTAYMQLKSLTSEDSAVYYCARFGFYGAMDYWGQGISVTVSS
VL: DVVVTQTPLSLPVSFGDQVSISCRSSQSLANSFGNTYLSWYLHKPGQSPQLLIYGISNRFSGVPDRFSGSGSGTDFTLKISTIKPEDLGVYYCLQGTHQPFTFGSGTTLELK
notes: Mouse hybridoma monoclonal antibody; Conjugated to PE in the staining assays; also called antibody 5; clone 5
B2: exemplary anti-CD28 antibody AB8 (antibody, V domains shown)
VH: EVKLVESGGGLVQPGGSLKLSCAASGFTFSSYTMSWVRQTPEKRLEWVAYISNGGGTTYYPDTVKGRFTISRDNAKNTLYLQMSSLKSEDTAVYYCARHRPYDYDVLDYWGQGTTLTVSS
VL: DIVMTQSQKFMSTSVGDRVSITCKASQIVGTDVAWYQQKPGQSPKILIFSASNRYTGVPDRFTGSGSGTDFTLTISNMQSEDLADYFCHQYSRYPYTFGGGTKLEIK
notes: Mouse hybridoma monoclonal antibody; Conjugated to PE in the staining assays; also called antibody 8; clone 8
B3: exemplary anti-CD28 antibody AB3 (antibody, V domains shown)
VH: KVQLQQSGAGLVKPGASVKLSCKTSGYTFSDYIINWVKQRSGQGLEWIGWFYPGSGSINYNEKFKDKATLTADKSSSTVYMDLSRLTSEDSAVYFCARREDRGGYDAFDYWGQGTTLTVSS
VL: DIQMTQSPASLSVSVGETVTITCRASENIYSNLAWYQQKQGKSPQLLVYAATKLADGVPSRFSGSGSGTQYSLRINSLQSEDFGSYYCQHFWGTPWTFGGGTKLEIK
notes: Mouse hybridoma monoclonal antibody; Conjugated to PE in the staining assays; also called antibody 3; clone 3
B4: exemplary anti-CD28 antibody AB6 (antibody, V domains shown)
VH: B3 VH
VL: B3 VL
notes: Mouse hybridoma monoclonal antibody; Conjugated to PE in the staining assays; also called antibody 6; clone 6
B5: exemplary anti-CD28 antibody AB4 (antibody, V domains shown)
VH: B1 VH
VL: B3 VL
notes: Mouse hybridoma monoclonal antibody; Conjugated to PE in the staining assays; also called antibody 4; clone 4
B6: exemplary anti-CD28 antibody AB1 (antibody, V domains shown)
VH: QVHLQQSATELARPGASVKMSCKASGYTFTSYTMHWVKQRPGQGLEWIGYIDPGSGYSEFNHKFKDKSTLTADKSSSTAYMQLISLTSEDSAVYYCARRQDNSGYDSFDYWGQGTTLTVSS
VL: B3 VL with A25T, K53N, P59S, T69I, R74K, T94I
notes: Mouse hybridoma monoclonal antibody; also called antibody 1; clone 1
B7: exemplary anti-CD28 antibody AB7 (antibody, V domains shown)
VH: B3 VH with T24A
VL: B3 VL with A25T, S80P
notes: Mouse hybridoma monoclonal antibody; Conjugated to PE in the staining assays; also called antibody 7; clone 7
B8: exemplary anti-CD28 antibody AB2 (antibody, V domains shown)
VH: QVQLQQPGSELMRPGASVKLSCKASGYTFTSYWMHWVKQRHGQGLEWIGNIYPGSGRTIYDEKFKSKATLTVDTSSSTAYMHLSSLTSEDSAVFYCTRSHYGSSFDAMDYWGQGTSVTVSS
VL: DIQVNQSPSSLSASLGDTITITCHASQNIYVWLNWYQQKPGNIPKLLIYKASNLHTGVPSRFSGSGSGTGFTLTISSLQPEDIATYYCQQGQSYPWTFGGGTKLEIK
notes: Mouse hybridoma monoclonal antibody; also called antibody 2; clone 2

Numbering of substitutions follows the chain as printed.

The first test deals with T1, human CD28 (human, UniProt P10747 19-220, On cells CD28 is a disulfide linked homodimer and a glycoprotein; one copy of the chain is given.). Kind of test: cell-based or functional assay.
T1 sequence (P10747 19-220 limits assumed): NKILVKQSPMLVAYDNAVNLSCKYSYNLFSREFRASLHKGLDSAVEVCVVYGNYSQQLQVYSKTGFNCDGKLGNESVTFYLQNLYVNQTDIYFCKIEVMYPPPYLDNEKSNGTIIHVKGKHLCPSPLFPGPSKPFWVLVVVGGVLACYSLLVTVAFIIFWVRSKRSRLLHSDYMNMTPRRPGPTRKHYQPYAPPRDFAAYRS
With B1, the “Division Index (with anti-CD3 UCHT1)” value was 1.17; the “Expansion Index (with anti-CD3 UCHT1)” value was 5.39; the “Percent Divided (CFSE T cell division, with plate-coated anti-CD3 UCHT1)” value turned out to be 60.5%.
On to B2, for which the “Division Index (with anti-CD3 UCHT1)” value stood at 0.76; the “Expansion Index (with anti-CD3 UCHT1)” value was 3.51; the “Percent Divided (CFSE T cell division, with plate-coated anti-CD3 UCHT1)” value was 40%.
In the same order, the values of B3 are 1.08, 5.11 and 55.7%.
In the same order, the values of B4 are 1.32, 6.04 and 65.8%.
As for B5, the “Division Index (with anti-CD3 UCHT1)” value was found to be 1.08; the “Expansion Index (with anti-CD3 UCHT1)” value was 5.07; the “Percent Divided (CFSE T cell division, with plate-coated anti-CD3 UCHT1)” value was determined as 53.8%.
The like results for B6 were, in that order, 0.8, 4.03 and 42%.
In the same order, the values of B7 are 0.96, 4.82 and 48%.
On to B8, for which the “Division Index (with anti-CD3 UCHT1)” value came to 0.99; the “Expansion Index (with anti-CD3 UCHT1)” value was determined as 4.56; the “Percent Divided (CFSE T cell division, with plate-coated anti-CD3 UCHT1)” value worked out at 44%.

Another test addresses T1, human CD28. Kind of test: cell-based or functional assay. This is another data set of the same source.
With B1, the “Division Index (no anti-CD3)” value was 0.0082; the “Expansion Index (no anti-CD3)” value stood at 1.01; the “Percent Divided (CFSE T cell division, no anti-CD3)” value is 0.64%.
The like results for B2 were, in that order, 0.62, 2.85 and 30.7%.
Consider B3, for which the “Division Index (no anti-CD3)” value is 0.0056; the “Expansion Index (no anti-CD3)” value was determined as 1.01; the “Percent Divided (CFSE T cell division, no anti-CD3)” value stood at 0.32%.
For the molecule B4, the “Division Index (no anti-CD3)” value came out at 0.0047; the “Expansion Index (no anti-CD3)” value was 1.01; the “Percent Divided (CFSE T cell division, no anti-CD3)” value was found to be 0.33%.
On to B5, for which the “Division Index (no anti-CD3)” value worked out at 0.0002; the “Expansion Index (no anti-CD3)” value stood at 1; the “Percent Divided (CFSE T cell division, no anti-CD3)” value is 0.0091%.
Turning to B6, the “Division Index (no anti-CD3)” value worked out at 0.0072; the “Expansion Index (no anti-CD3)” value worked out at 1.01; the “Percent Divided (CFSE T cell division, no anti-CD3)” value is 0.58%.
With B7, the “Division Index (no anti-CD3)” value stood at 0.014; the “Expansion Index (no anti-CD3)” value turned out to be 1.03; the “Percent Divided (CFSE T cell division, no anti-CD3)” value stood at 0.47%.
The like results for B8 were, in that order, 1.49, 6.13 and 65.4%.

The next test concerns the target T1, human CD28. Kind of test: flow cytometry, PE-conjugated antibody on un-fixed human peripheral blood cells. (In general: In flow cytometry, cells or beads pass a laser one at a time.)
Method: (§1) Cells were left either un-fixed or were fixed with 4% PFA for 15 minutes and washed with PBS to remove PFA. Cells were then counted and adjusted in Cell Staining Buffer and stained with exemplary anti-CD28 antibodies conjugated to PE for 30 minutes in the dark. […] Data were acquired on a BD Canto II instrument, and analyzed by FlowJo.
B1: the “S/N on un-fixed cells” value is 94.5.
With B2, the “S/N on un-fixed cells” value came to 30.9.
Still for that read-out and setting: the figure for B3 is 133; for B4 it is 128.
B5: the “S/N on un-fixed cells” value stood at 75.4.
On to B6, for which the “S/N on un-fixed cells” value amounted to 89.2.
For B7, the “S/N on un-fixed cells” value is 130.
B8: the “S/N on un-fixed cells” value was found to be 89.

The target in another test is T1, human CD28. Kind of test: flow cytometry, PE-conjugated antibody on 4% PFA-fixed human peripheral blood cells.
Method: as §1
B1: the “S/N on fixed cells” value is 63.3.
Still for that read-out and setting: the figure for B2 is 24.6.
Still for that read-out and setting: the same measure for B3: 101; for B4: 101.
As for B5, the “S/N on fixed cells” value came out at 57.7.
As to B6, the “S/N on fixed cells” value came to 61.6.
B7: the “S/N on fixed cells” value is 108.
With B8, the “S/N on fixed cells” value turned out to be 50.1.

A further test concerns the target T1, human CD28. Kind of test: flow cytometry, PE-conjugated antibody on fresh human peripheral blood cells, CD3/CD28 gating.
From the text: Cells were lysed with RBC lysis buffer, washed, and resuspended in Fluorofix solution (containing 1% PFA). Data were acquired on a BD Canto II instrument, and analyzed by FlowJo. […] A histogram was generated of each cell population to quantify median fluorescence intensity (MFI), and the MFI of each exemplary antibody and respective control was used to calculate the signal to noise (S:N) ratio (Table E2).
As to B1, the “% CD28+ population” value was 64.7%, the “MFI CD28+ population” value is 12500 and the “S/N Ratio” value is 195.
For the molecule B2, the “% CD28+ population” value amounted to 65%, the “MFI CD28+ population” value came out at 5210 and the “S/N Ratio” value amounted to 83.2.
For the molecule B3, the “% CD28+ population” value came to 65.7%, the “MFI CD28+ population” value was 15600 and the “S/N Ratio” value stood at 260.
In the same order, the values of B4 are 66%, 15500 and 249.
In the same order, the values of B5 are 64.9%, 11900 and 193.
In the same order, the values of B6 are 64.8%, 12600 and 212.
On to B7, for which the “% CD28+ population” value came to 64.8%, the “MFI CD28+ population” value is 16200 and the “S/N Ratio” value worked out at 249.
Turning to B8, the “% CD28+ population” value was found to be 64.2%, the “MFI CD28+ population” value worked out at 13100 and the “S/N Ratio” value was 207.

The next test deals with T1, human CD28. Kind of test: flow cytometry, Ba/F3-human CD28 cells pre-incubated with 70 ug antibody, then 1 ug biotinylated recombinant CD86 (competitor) + labelled streptavidin.
Method: After 15 minutes of incubation and wash, cells were incubated with PE-conjugated streptavidin. Data were acquired on a BD Canto II, and analyzed using FlowJo software.
This value was subtracted from 100 to get a reduction percentage.
Turning to B1, the “% Reduction (of CD86 binding)” value is 91.9% and the “MFI (of CD86 binding after antibody pre-incubation)” value is 668.
Regarding B2, the “% Reduction (of CD86 binding)” value came out at 88.8% and the “MFI (of CD86 binding after antibody pre-incubation)” value turned out to be 925.
Regarding B3, the “% Reduction (of CD86 binding)” value came out at 90.4% and the “MFI (of CD86 binding after antibody pre-incubation)” value worked out at 796.
In the same order, the values of B4 are 91.1% and 741.
Turning to B5, the “% Reduction (of CD86 binding)” value came out at 92.1% and the “MFI (of CD86 binding after antibody pre-incubation)” value amounted to 657.
In the same order, the values of B6 are 91.1% and 736.
In the same order, the values of B7 are 88.5% and 955.
For B8, the “% Reduction (of CD86 binding)” value was 91.4% and the “MFI (of CD86 binding after antibody pre-incubation)” value was determined as 714.

The values are drawn from patent publication US20250052767A1 (BIOLEGEND, published 2025).
